Laboratory results taken from publication PMC3561183, “Discovery of a Siderophore Export System Essential for Virulence of Mycobacterium tuberculosis” (PLoS Pathogens, 2013).

Target: T1, Loop L1 of MmpL4 (residues 58-199) (Mycobacterium tuberculosis, UniProt P9WJV3 58-199)
T1 construct: MmpL4 of Mycobacterium tuberculosis, predicted loop L1 between TM1 and TM2, residues 58-199; also called L1 loop of MmpL4; periplasmic loop of MmpL4
T1 sequence: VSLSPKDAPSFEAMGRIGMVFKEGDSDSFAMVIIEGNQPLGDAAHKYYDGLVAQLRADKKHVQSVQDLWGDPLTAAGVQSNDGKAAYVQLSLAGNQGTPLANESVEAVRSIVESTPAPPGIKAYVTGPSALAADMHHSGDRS
Experiment: pull-down
Settings: both partners purified

B1: C-terminal soluble domain of MmpS4 (residues 52-140) (domain or fragment)
chain: HLTYEIFGPPGTVADISYFDVNSEPQRVDGAVLPWSLHITTNDAAVMGNIVAQGNSDSIGCRITVDGKVRAERVSNEVNAYTYCLVKSA
notes: MmpS4 (rv0451c) of Mycobacterium tuberculosis, residues 52-140: N-terminally truncated, lacks the predicted transmembrane helix; also called MmpS4_(52-140); water-soluble domain of MmpS4
B1: binds.
